According to publication PMC6167014 (Cancer research, 2017):

B1: His-BAP1-ULD (601–729) WT (domain or fragment, human, UniProt Q92560 601-729, looked up)
chain: KEVVEATDSREKTGMVRPGEPLSGEKYSPKELLALLKCVEAEIANYEACLKEEVEKRKKFKIDDQRRTHNYDEFICTFISMLAQEGMLANLVEQNISVRRRQGVSIGRLHKQRKPDRRKRSRPYKAKRQ

Key:
[1] = molecular target: T1, GST-BAP1-UCH (1–250 aa) (human, UniProt Q92560 1-250); assay: pull-down
T1 sequence (looked up): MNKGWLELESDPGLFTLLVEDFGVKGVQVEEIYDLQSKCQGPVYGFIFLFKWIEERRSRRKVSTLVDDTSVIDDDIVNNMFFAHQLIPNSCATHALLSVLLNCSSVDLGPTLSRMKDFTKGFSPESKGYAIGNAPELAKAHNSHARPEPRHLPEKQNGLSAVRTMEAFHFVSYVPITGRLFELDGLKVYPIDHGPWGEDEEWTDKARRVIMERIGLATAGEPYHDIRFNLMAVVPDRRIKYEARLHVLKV

[2] = molecular target: T2, GST-BAP1-ULD (human, UniProt Q92560 601-729); assay: pull-down
T2 sequence (looked up): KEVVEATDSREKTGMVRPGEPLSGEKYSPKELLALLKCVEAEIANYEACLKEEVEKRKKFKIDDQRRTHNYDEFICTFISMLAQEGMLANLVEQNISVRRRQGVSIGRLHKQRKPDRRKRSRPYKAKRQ

[3] = molecular target: B1; assay: pull-down
[4] = molecular target: T3, GST-BAP1 (full length) (human, UniProt Q92560 1-729); assay: pull-down
T3 sequence (looked up): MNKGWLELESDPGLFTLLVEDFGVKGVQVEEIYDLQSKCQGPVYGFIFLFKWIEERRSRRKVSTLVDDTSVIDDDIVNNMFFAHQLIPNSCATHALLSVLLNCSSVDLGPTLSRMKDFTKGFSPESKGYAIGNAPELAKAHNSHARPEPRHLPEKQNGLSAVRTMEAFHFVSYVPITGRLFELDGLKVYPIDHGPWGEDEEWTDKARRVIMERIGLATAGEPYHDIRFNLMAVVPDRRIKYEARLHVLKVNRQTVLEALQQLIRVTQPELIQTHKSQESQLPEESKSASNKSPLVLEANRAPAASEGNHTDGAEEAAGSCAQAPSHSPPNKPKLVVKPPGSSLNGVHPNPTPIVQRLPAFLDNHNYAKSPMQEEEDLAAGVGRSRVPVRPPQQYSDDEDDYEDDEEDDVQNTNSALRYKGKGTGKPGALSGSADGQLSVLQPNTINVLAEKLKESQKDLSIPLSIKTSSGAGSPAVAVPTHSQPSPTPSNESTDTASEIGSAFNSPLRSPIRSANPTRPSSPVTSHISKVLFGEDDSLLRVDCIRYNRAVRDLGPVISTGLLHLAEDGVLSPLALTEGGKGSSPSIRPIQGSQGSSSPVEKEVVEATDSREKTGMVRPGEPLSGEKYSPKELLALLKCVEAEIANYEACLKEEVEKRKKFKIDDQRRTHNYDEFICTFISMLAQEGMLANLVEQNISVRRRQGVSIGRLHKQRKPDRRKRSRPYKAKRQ

[5] = molecular target: T4, His-BAP1-FL ∆E283-S285 (baculovirus) (human, UniProt Q92560 1-729, ∆E283-S285); assay: co-IP
T4 sequence (looked up): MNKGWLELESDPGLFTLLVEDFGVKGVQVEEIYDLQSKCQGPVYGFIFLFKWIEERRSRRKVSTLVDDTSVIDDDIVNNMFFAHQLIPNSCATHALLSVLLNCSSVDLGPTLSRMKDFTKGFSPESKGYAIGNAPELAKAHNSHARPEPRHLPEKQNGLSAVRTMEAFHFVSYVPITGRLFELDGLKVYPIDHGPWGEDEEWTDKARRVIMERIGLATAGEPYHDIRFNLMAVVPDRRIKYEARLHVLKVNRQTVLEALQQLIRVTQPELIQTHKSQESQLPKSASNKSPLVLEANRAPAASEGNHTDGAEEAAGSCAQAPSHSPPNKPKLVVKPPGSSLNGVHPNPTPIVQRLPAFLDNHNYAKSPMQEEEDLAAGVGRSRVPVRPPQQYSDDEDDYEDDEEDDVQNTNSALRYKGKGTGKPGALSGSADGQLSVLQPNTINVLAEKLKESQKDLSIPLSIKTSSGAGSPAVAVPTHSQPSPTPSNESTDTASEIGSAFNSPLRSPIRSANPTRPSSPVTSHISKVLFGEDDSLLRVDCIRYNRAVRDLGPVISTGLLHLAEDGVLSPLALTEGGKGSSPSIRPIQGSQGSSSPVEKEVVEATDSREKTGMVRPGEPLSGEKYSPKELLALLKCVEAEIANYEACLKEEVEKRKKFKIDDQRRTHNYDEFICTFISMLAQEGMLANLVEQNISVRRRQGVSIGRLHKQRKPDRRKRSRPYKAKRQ

B1: binds [1].

B2: His-BAP1-ULD L650P (domain or fragment, human, UniProt Q92560 601-729, looked up)
chain: KEVVEATDSREKTGMVRPGEPLSGEKYSPKELLALLKCVEAEIANYEACPKEEVEKRKKFKIDDQRRTHNYDEFICTFISMLAQEGMLANLVEQNISVRRRQGVSIGRLHKQRKPDRRKRSRPYKAKRQ
B2: binds [1].

B3: His-BAP1-ULD F660P (domain or fragment, human, UniProt Q92560 601-729, looked up)
chain: KEVVEATDSREKTGMVRPGEPLSGEKYSPKELLALLKCVEAEIANYEACLKEEVEKRKKPKIDDQRRTHNYDEFICTFISMLAQEGMLANLVEQNISVRRRQGVSIGRLHKQRKPDRRKRSRPYKAKRQ
B3: binds [1].

B4: His-ASXL2-AB (261–381 aa) (domain or fragment, human, UniProt Q76L83 261-381, looked up)
chain: MKRTKCADIDVETPDSILVNTNLRALINKHTFSVLPGDCQQRLLLLLPEVDRQVGPDGLMKLNGSALNNEFFTSAAQGWKERLSEGEFTPEMQVRIRQEIEKEKKVEPWKEQFFESYYGQS
B4: binds [2]; binds [3]; binds [4].

B5: Flag-ASXL2 (261–649 aa) (baculovirus) (domain or fragment, human, UniProt Q76L83 261-649, looked up)
chain: MKRTKCADIDVETPDSILVNTNLRALINKHTFSVLPGDCQQRLLLLLPEVDRQVGPDGLMKLNGSALNNEFFTSAAQGWKERLSEGEFTPEMQVRIRQEIEKEKKVEPWKEQFFESYYGQSSGLSLEDSKKLTASPSDPKVKKTPAEQPKSMPVSEASLIRIVPVVSQSECKEEALQMSSPGRKEECESQGEVQPNFSTSSEPLLSSALNTHELSSILPIKCPKDEDLLEQKPVTSAEQESEKNHLTTASNYNKSESQESLVTSPSKPKSPGVEKPIVKPTAGAGPQETNMKEPLATLVDQSPESLKRKSSLTQEEAPVSWEKRPRVTENRQHQQPFQVSPQPFLNRGDRIQVRKVPPLKIPVSRISPMPFHPSQVSPRARFPVSITSP
B5: binds [4]; binds [5].

B6: His-BAP1-ULD ∆K637-C638 (sub of N) (domain or fragment, human, UniProt Q92560 601-729, looked up)
chain: KEVVEATDSREKTGMVRPGEPLSGEKYSPKELLALLNVEAEIANYEACLKEEVEKRKKFKIDDQRRTHNYDEFICTFISMLAQEGMLANLVEQNISVRRRQGVSIGRLHKQRKPDRRKRSRPYKAKRQ
B6: binds [1].
